# Results reported in article PMC9958909, “Insight into the Structural Basis for Dual Nucleic Acid—Recognition by the Scaffold Attachment Factor B2 Protein”.
# Where a chain is given by its changes, count along the chain named.
# B1: dsAT13mer (dsDNA)
# DNA 1: GCAATAAATACG
# DNA 2: CGTATTTATTGC
# B2: dsAT9mer (dsDNA)
# DNA 1: CAATATAAC
# DNA 2: GTTATATTG
# B3: dsAT16mer (dsDNA)
# DNA 1: GCGCACAATATAACGC
# DNA 2: GCGTTATATTGTGCGC
# B4: dsGC16mer (dsDNA)
# DNA 1: CGCCCCCGCGCCCGCG
# DNA 2: CGCGGGCGCGGGGGCG
# Experiments:
# [1] = biological target: SAFB2 SAP domain (21-70), wild type (human) (UniProt Q14151); assay: SEC; preparative size exclusion on HiLoad 16/600 SD 75 in 25 mM sodium phosphate, 150 mM NaCl, 0.02% NaN3, pH 6.5; size from calibration
# [2] = biological target: T1, SAFB2 SAP WT (21-70) (Homo sapiens, UniProt Q14151 21-70); assay: EMSA; 0-40 uM SAP; yeast tRNA, 10 mM MgCl2; slight preference for AT over GC; apparent micromolar affinity; NMR: 20 mM BisTris, 150 mM NaCl, pH 6.5, 5% D2O, 298 K (RRM plus 2 mM TCEP). EMSA: 25 mM sodium phosphate, 150 mM NaCl, 0.02% NaN3, pH 6.5, 10 mM MgCl2, 0.6 ug; details: protein: recombinant; tags: N-terminal GAM left after TEV cleavage (His6-Trx removed); label: 5'-6-FAM on fw strand; blunt
# T1 chain: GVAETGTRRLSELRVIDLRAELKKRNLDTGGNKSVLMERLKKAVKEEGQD
# [3] = biological target: T1, SAFB2 SAP WT (21-70); assay: NMR titration; CSP as for 16mer; NMR: 20 mM BisTris, 150 mM NaCl, pH 6.5, 5% D2O, 298 K (RRM plus 2 mM TCEP). EMSA: 25 mM sodium phosphate, 150 mM NaCl, 0.02% NaN3, pH 6.5, 10 mM MgCl2, 0.6 ug; details: protein: recombinant; tags: N-terminal GAM left after TEV cleavage (His6-Trx removed); blunt
# [4] = biological target: T2, SAFB2 SAP K53A/S54A (Homo sapiens, UniProt Q14151 21-70, K53A;S54A); assay: NMR titration; 6x DNA; no significant CSPs; NMR: 20 mM BisTris, 150 mM NaCl, pH 6.5, 5% D2O, 298 K (RRM plus 2 mM TCEP). EMSA: 25 mM sodium phosphate, 150 mM NaCl, 0.02% NaN3, pH 6.5, 10 mM MgCl2, 0.6 ug; details: protein: recombinant; tags: N-terminal GAM left after TEV cleavage; blunt
# T2 chain: T1 chain with K33A, S34A
# [5] = biological target: T3, SAFB2 RRM (404-485) (Homo sapiens, UniProt Q14151 404-485); assay: NMR titration; significant CSPs of RNP residues; NMR: 20 mM BisTris, 150 mM NaCl, pH 6.5, 5% D2O, 298 K (RRM plus 2 mM TCEP). EMSA: 25 mM sodium phosphate, 150 mM NaCl, 0.02% NaN3, pH 6.5, 10 mM MgCl2, 0.6 ug; details: protein: recombinant; tags: N-terminal GAM left after TEV cleavage (His6-Trx removed)
# [6] = biological target: T3, SAFB2 RRM (404-485); assay: NMR titration; CSPs equal to A7/C7; NMR: 20 mM BisTris, 150 mM NaCl, pH 6.5, 5% D2O, 298 K (RRM plus 2 mM TCEP). EMSA: 25 mM sodium phosphate, 150 mM NaCl, 0.02% NaN3, pH 6.5, 10 mM MgCl2, 0.6 ug; details: protein: recombinant; tags: N-terminal GAM left after TEV cleavage (His6-Trx removed); blunt
# [7] = biological target: T1, SAFB2 SAP WT (21-70); assay: NMR titration; up to 6x DNA; fast exchange; NMR: 20 mM BisTris, 150 mM NaCl, pH 6.5, 5% D2O, 298 K (RRM plus 2 mM TCEP). EMSA: 25 mM sodium phosphate, 150 mM NaCl, 0.02% NaN3, pH 6.5, 10 mM MgCl2, 0.6 ug; details: protein: recombinant; tags: N-terminal GAM left after TEV cleavage (His6-Trx removed); blunt
# T3 sequence (Q14151 404-485): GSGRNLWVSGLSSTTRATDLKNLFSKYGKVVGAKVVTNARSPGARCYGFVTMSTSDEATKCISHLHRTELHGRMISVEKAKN
molecule,measurement,setting,value
"SAFB2 SAP domain (21-70), wild type (from UniProt Q14151 21-70) (domain or fragment)",stoichiometry N,[1],2
B1,binding result,[2],binds
B2,binding result,[3],binds
same,binding result,[4],no binding
AAAAAAA (ssRNA) [A7],binding result,[5],binds
CCCCCCC (ssRNA) [C7],binding result,[5],binds
B3,binding result,[6],binds
same,binding result,[7],binds
B4,binding result,[6],binds
